The target of this assay is T1, OX40 on OX40-positive helper T-cells in blood of patients (human, UniProt P43489 29-277).
T1 construct: whole, on cells; The cells came from trial patients; also called CD134; human OX40
T1 sequence (looked up): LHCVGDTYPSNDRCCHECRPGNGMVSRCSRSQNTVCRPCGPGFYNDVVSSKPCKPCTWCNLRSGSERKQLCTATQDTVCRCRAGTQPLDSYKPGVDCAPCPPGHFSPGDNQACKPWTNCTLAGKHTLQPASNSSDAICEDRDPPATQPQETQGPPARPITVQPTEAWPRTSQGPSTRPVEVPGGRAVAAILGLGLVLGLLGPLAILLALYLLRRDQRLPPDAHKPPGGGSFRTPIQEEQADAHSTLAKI
Description: flow cytometry of patients' blood after dosing: total versus unoccupied OX40-positive helper T cells (receptor occupancy, ex vivo). The procedure: Blood samples for flow cytometry are collected from the subjects who voluntarily agree. When the timing overlaps the study drug administration, the sample is taken before the study drug administration. The OX40-positive cells and the CLA-positive memory T cells in the blood of the patients are counted. When OX40-positive cells in the blood are analyzed, OX40-positive cells in helper T cells are analyzed by using helper T cell markers. Therefore, OX40-positive cells in the blood herein means OX40 positive helper T cells in the blood.
A general note: A flow cytometer gives signals particle by particle.

These results are taken from patent US20230383001A1 (Kyowa Kirin, published 2023).

B1: KHK4083 (antibody, human IgG1, kappa, V domains shown)
VH: QITLKESGPTLVKPKQTLTLTCTFSGFSLSTSGMGVGWIRQPPGKALEWLAVIYWDDHQLYSPSLKSRLTITKDTSKNQVVLTMTNMDPVDTATYYCAHRRGAFQHWGQGTLVTVSS
VL: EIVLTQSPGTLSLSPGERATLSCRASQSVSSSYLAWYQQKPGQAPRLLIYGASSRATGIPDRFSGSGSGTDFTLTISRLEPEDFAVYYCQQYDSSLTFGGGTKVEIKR
notes: also called anti-OX40 antibody
For the molecule B1, the binding result is reported as “binds”.
